{"source": "patent US20060099671", "test_system": "human plasminogen", "sequence (chain, as listed by the source)": "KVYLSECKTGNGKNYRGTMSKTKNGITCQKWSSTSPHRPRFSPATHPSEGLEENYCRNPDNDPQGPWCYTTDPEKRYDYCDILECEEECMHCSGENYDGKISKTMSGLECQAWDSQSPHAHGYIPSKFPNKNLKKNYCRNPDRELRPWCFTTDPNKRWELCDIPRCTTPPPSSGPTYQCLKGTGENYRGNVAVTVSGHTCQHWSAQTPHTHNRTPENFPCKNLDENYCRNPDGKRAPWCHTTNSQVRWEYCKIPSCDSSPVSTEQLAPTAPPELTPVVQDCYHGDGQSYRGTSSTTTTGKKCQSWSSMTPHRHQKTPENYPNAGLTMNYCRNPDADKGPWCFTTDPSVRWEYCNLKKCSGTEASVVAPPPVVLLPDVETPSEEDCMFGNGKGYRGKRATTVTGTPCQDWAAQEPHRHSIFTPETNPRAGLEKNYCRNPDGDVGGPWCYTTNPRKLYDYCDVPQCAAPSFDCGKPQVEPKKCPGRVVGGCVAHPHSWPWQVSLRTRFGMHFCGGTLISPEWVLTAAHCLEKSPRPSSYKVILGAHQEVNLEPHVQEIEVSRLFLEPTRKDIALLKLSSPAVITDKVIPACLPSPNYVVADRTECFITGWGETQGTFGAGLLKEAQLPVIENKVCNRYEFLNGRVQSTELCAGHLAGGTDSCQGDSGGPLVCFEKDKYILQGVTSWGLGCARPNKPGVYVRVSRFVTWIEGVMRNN"}
{"substance": "urokinase-type plasminogen activator (u-PA)", "values": [{"measurement": "conversion of plasminogen to plasmin (Coomassie-stained reduced polyacrylamide gels)", "result": "The complete conversion of plasminogen to plasmin was confirmed"}, {"measurement": "production of angiostatin (western blot)", "result": "incubation of plasminogen (0.2 µM) with u-PA (0.2 nM), t-PA (1.0 nM), or streptokinase (8.0 nM) with 100 µM N-acetyl-L-cysteine resulted in the production of angiostatin"}]}
{"substance": "tissue-type plasminogen activator (t-PA)", "values": [{"measurement": "production of angiostatin (western blot)", "result": "incubation of plasminogen (0.2 µM) with u-PA (0.2 nM), t-PA (1.0 nM), or streptokinase (8.0 nM) with 100 µM N-acetyl-L-cysteine resulted in the production of angiostatin"}]}
